Laboratory results from patent US20140212379A1 (AbbVie / Abbott, published 2014).
Where a chain is given by its changes, count along the chain named.

T1: Human mature IL-1α (human, UniProt P01583 113-271)
T1 sequence: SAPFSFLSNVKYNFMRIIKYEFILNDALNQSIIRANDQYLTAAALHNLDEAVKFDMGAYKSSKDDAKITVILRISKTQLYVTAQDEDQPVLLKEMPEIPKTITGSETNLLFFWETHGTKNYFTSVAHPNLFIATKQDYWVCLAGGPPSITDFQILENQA

T2: Cynomolgus IL-1α (cynomolgus, UniProt P79340 113-271)
T2 sequence (looked up): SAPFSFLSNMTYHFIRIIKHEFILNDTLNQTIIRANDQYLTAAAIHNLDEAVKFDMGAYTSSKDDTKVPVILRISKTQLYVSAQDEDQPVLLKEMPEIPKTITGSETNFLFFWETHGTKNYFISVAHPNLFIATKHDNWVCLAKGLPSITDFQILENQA

T3: Cynomolgus IL-1β (cynomolgus, UniProt P79182 117-268)
T3 sequence (looked up): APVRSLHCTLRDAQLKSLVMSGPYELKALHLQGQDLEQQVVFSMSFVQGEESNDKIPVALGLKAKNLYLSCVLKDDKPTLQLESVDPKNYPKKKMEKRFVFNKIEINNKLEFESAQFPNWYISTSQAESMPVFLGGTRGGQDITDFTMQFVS

B1: E26.13-LL-X3 DVD-Ig (bispecific antibody, human IgG1, kappa, L234A L235A)
heavy: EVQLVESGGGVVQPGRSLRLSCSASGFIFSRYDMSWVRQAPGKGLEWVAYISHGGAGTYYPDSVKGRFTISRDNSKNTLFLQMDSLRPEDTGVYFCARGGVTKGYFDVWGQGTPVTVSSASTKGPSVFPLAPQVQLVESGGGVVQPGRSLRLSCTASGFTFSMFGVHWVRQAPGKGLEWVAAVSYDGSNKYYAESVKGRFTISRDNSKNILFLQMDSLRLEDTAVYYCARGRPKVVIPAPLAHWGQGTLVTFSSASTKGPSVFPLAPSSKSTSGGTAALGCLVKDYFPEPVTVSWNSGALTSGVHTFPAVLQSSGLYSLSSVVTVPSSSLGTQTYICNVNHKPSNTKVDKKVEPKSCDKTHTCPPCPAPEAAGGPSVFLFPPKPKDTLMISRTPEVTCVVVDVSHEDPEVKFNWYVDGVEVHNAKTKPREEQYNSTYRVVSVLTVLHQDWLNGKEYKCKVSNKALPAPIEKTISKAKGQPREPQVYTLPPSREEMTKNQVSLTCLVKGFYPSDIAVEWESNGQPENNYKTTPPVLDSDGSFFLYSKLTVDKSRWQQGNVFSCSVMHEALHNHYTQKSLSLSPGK
light: DIQMTQSPSSLSASVGDRVTITCRASGNIHNYLTWYQQTPGKAPKLLIYNAKTLADGVPSRFSGSGSGTDYTFTISSLQPEDIATYYCQHFWSIPYTFGQGTKLQITRTVAAPSVFIFPPDIQMTQSPSSVSASVGDRVTITCRASQGISSWLAWYQQKPGKAPKLLIYEASNLETGVPSRFSGSGSGSDFTLTISSLQPEDFATYYCQQTSSFLLSFGGGTKVEHKRTVAAPSVFIFPPSDEQLKSGTASVVCLLNNFYPREAKVQWKVDNALQSGNSQESVTEQDSKDSTYSLSSTLTLSKADYEKHKVYACEVTHQGLSSPVTKSFNRGEC
B2: E26.13-SS-X3 JM DVD-Ig (bispecific antibody, human IgG1, kappa, L234A L235A)
heavy: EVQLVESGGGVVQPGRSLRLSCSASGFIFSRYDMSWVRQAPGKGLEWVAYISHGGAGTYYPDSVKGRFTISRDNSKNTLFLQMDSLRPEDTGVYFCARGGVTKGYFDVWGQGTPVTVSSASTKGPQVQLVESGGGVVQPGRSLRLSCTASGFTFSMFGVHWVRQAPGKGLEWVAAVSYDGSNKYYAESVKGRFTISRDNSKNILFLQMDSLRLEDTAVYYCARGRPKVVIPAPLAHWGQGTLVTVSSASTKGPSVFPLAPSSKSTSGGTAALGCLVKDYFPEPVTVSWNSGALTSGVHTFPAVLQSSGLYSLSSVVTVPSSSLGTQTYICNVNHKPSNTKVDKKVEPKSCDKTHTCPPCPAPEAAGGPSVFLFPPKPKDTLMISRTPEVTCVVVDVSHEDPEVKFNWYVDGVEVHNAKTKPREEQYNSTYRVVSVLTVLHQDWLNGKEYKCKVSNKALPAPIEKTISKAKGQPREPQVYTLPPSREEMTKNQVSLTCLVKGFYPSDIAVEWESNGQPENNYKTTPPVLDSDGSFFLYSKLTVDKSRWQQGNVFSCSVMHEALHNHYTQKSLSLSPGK
light: DIQMTQSPSSLSASVGDRVTITCRASGNIHNYLTWYQQTPGKAPKLLIYNAKTLADGVPSRFSGSGSGTDYTFTISSLQPEDIATYYCQHFWSIPYTFGQGTKLQITRTVAAPDIQMTQSPSSVSASVGDRVTITCRASQGISSWLAWYQQKPGKAPKLLIYEASNLETGVPSRFSGSGSGSDFTLTISSLQPEDFATYYCQQTSSFLLSFGGGTKVEIKRTVAAPSVFIFPPSDEQLKSGTASVVCLLNNFYPREAKVQWKVDNALQSGNSQESVTEQDSKDSTYSLSSTLTLSKADYEKHKVYACEVTHQGLSSPVTKSFNRGEC
B3: E26.35-SS-X3 DVD-Ig (bispecific antibody, human IgG1, kappa, L234A L235A)
heavy: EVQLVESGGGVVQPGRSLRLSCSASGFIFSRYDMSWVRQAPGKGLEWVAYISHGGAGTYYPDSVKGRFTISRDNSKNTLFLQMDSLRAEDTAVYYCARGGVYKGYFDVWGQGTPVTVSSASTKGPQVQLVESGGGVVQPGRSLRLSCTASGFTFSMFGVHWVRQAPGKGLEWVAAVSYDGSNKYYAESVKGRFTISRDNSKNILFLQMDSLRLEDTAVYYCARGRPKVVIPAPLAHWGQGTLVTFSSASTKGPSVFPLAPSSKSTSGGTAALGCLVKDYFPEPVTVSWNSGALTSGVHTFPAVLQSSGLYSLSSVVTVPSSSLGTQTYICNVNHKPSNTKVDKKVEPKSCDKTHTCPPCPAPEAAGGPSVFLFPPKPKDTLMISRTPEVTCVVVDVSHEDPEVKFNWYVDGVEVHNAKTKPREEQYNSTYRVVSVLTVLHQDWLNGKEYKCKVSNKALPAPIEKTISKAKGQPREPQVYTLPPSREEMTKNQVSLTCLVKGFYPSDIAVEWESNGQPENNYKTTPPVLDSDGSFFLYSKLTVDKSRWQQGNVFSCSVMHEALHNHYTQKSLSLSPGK
light: B2 light with I219H
B4: X3-LL-E26.13 DVD-Ig (bispecific antibody, human IgG1, kappa, L234A L235A)
heavy: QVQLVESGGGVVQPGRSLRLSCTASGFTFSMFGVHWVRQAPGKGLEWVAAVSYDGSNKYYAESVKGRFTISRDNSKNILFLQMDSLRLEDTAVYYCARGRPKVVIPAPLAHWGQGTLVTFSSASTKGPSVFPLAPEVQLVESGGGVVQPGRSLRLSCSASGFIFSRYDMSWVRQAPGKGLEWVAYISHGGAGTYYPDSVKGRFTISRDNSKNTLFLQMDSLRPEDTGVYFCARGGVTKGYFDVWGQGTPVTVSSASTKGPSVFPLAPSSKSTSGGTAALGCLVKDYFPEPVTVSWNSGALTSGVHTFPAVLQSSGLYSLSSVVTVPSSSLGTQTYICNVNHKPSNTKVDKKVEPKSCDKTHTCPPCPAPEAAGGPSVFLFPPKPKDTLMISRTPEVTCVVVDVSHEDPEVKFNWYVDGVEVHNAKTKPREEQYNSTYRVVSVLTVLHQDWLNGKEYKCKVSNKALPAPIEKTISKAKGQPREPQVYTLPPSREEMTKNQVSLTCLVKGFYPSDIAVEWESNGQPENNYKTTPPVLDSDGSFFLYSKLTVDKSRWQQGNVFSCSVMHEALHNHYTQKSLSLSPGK
light: DIQMTQSPSSVSASVGDRVTITCRASQGISSWLAWYQQKPGKAPKLLIYEASNLETGVPSRFSGSGSGSDFTLTISSLQPEDFATYYCQQTSSFLLSFGGGTKVEHKRTVAAPSVFIFPPDIQMTQSPSSLSASVGDRVTITCRASGNIHNYLTWYQQTPGKAPKLLIYNAKTLADGVPSRFSGSGSGTDYTFTISSLQPEDIATYYCQHFWSIPYTFGQGTKLQITRTVAAPSVFIFPPSDEQLKSGTASVVCLLNNFYPREAKVQWKVDNALQSGNSQESVTEQDSKDSTYSLSSTLTLSKADYEKHKVYACEVTHQGLSSPVTKSFNRGEC

Legend:
Assay in all cases: cell-based or functional assay
[1] = target: T1, Human mature IL-1α
[2] = target: T2, Cynomolgus IL-1α
[3] = target: T3, Cynomolgus IL-1β
[4] = target: Human mature IL-1β (human, UniProt P01584 117-269)

| Binder | Potency (pM), inhibition of IL-1-induced hIL-8 in MRC5 cells [1] [pM] | Potency (pM), inhibition of IL-1-induced hIL-8 in MRC5 cells [2] [pM] | Potency (pM), inhibition of IL-1-induced hIL-8 in MRC5 cells [3] [pM] | Potency (pM), inhibition of IL-1-induced hIL-8 in MRC5 cells [4] [pM] |
| --- | --- | --- | --- | --- |
| B1 | 10.2 | 1050 | – | – |
| B2 | 26.5 | 1880 | 17.6 | – |
| B3 | 25.8 | 474 | 0.6 | 1.8 |
| B4 | 8.9 | – | – | 1470 |
